Data set [1] concerns the target p33/p55 complex (86 kDa, monomeric complex) (Helicobacter pylori strain 60190). Description: negative-stain electron microscopy.
For data set [2], the target named is purified recombinant VacA p55 domain (Helicobacter pylori strain 60190). Description: SEC. (In general: Size exclusion chromatography separates by hydrodynamic size, large species first.)
Data set [3] addresses recombinant refolded VacA p33 domain (Helicobacter pylori strain 60190). Kind of data set: SEC.
Data set [4] deals with the molecule itself. Description: negative-stain electron microscopy.

Several values for one entry are separate records, joined by “and”; a condition that tells them apart may be missing. Equal entries are not always repeated.

Consider “p33/p55 complex (86 kDa, monomeric complex)”, for which, in data set [1], the stoichiometry N (in general, the number of molecules, sites or subunits per partner or assembly) is 6 and 7 and 12. Consider “recombinant refolded VacA p33 domain (domain or fragment)”, for which the stoichiometry N in data set [2] was determined as 1; in data set [3], 3.

B1: p88 VacA purified from H. pylori broth culture supernatant (natural protein)
chain: AFFTTVIIPAIVGGIATGTAVGTVSGLLGWGLKQAEEANKTPDKPDKVWRIQAGKGFNEFPNKEYDLYKSLLSSKIDGGWDWGNAATHYWIKGGQWNKLEVDMKDAVGTYKLSGLRNFTGGDLDVNMQKATLRLGQFNGNSFTSYKDSADRTTRVDFNAKNILIDNFLEINNRVGSGAGRKASSTVLTLQASEGITSSKNAEISLYDGATLNLASNSVKLNGNVWMGRLQYVGAYLAPSYSTINTSKVTGEVNFNHLTVGDHNAAQAGIIASNKTHIGTLDLWQSAGLNIIAPPEGGYKDKPNNTPSQSGAKNDKQESSQNNSNTQVINPPNSTQKTEVQPTQVIDGPFAGGKDTVVNIDRINTKADGTIKVGGFKASLTTNAAHLNIGKGGVNLSNQASGRTLLVENLTGNITVDGPLRVNNQVGGYALAGSSANFEFKAGVDTKNGTATFNNDISLGRFVNLKVDAHTANFKGIDTGNGGFNTLDFSGVTNKVNINKLITASTNVAVKNFNINELIVKTNGVSVGEYTHFSEDIGSQSRINTVRLETGTRSIFSGGVKFKSGEKLVIDEFYYSPWNYFDARNIKNVEITRKFASSTPENPWGTSKLMFNNLTLGQNAVMDYSQFSNLTIQGDFINNQGTINYLVRGGKVATLNVGNAAAMMFNNDIDSATGFYKPLIKINSAQDLIKNTEHVLLKAKIIGYGNVSTGTNGISNVNLEEQFKERLALYNNNNRMDTCVVRNTDDIKACGMAIGNQSMVNNPDNYKYLIGKAWKNIGISKTANGSKISVYYLGNSTPTENGGNTTNLPTNTTNNARFASYA
Take B1: the “stoichiometry N” value in data set [4] is 6 and 7 and 12 to 14 (2×).

(Values after article PMC2910095 (Biochemistry, 2010).)
